Results taken from patent US20180148503A1 (Memorial Sloan Kettering, published 2018).

Experiments:
[1] = molecular target: PRA300-309 (…) / HLA-A*0201 complex (human); test: cell-based or functional assay
[2] = molecular target: T1, PRA300-309 (…) / HLA-A*0201 complex (human); test: method not stated; told in the ADCC example with PRAME+/HLA-A*02:01+ leukemia cells; upper end of the printed range 3-4 nM
T1 construct: also called PRAME300; PRAME P300

[3] = molecular target: T1, PRA300-309 (…) / HLA-A*0201 complex; test: method not stated; told in the ADCC example with PRAME+/HLA-A*02:01+ leukemia cells; lower end of the printed range 3-4 nM
[4] = molecular target: T2, HLA-A*0201 on T2 cells without added peptide (human); test: T2 stabilisation: surface HLA-A*02 level after pulsing with 50 µg/mL peptide, flow cytometry; the staining antibody is not named for this panel
T2 construct: Background target (T2 cells with no peptide pulsed); also used as the HLA-A*02 partner of the peptide in the stabilisation read-out; also called T2 cells alone; unpulsed T2 cells

[5] = molecular target: T3, 009-mut4 (…) / HLA-A*0201 complex on T2 cells (human); test: flow cytometry, APC-Pr300#20 at 3 µg/ml on peptide-pulsed T2 cells; the sheet gives 324 for T2 alone and 68351 for Pr300
T3 construct: also called EXT009-mut4

[6] = molecular target: T4, 009-mut6 (…) / HLA-A*0201 complex on T2 cells (human); test: as above
T4 construct: also called EXT009-mut6

[7] = molecular target: T5, 009-mut5 (…) / HLA-A*0201 complex on T2 cells (human); test: as above
T5 construct: also called EXT009-mut5

[8] = molecular target: T6, 009-mut9 (…) / HLA-A*0201 complex on T2 cells (human); test: as above
T6 construct: also called EXT009-mut9

[9] = molecular target: T7, 009-mut3 (…) / HLA-A*0201 complex on T2 cells (human); test: as above
T7 construct: also called EXT009-mut3; Pr302A

[10] = molecular target: T8, 009-mut8 (…) / HLA-A*0201 complex on T2 cells (human); test: as above
T8 construct: also called EXT009-mut8

[11] = molecular target: T9, 009-mut7 (…) / HLA-A*0201 complex on T2 cells (human); test: as above
T9 construct: also called EXT009-mut7; Pr306A

[12] = molecular target: T2, HLA-A*0201 on T2 cells without added …; test: flow cytometry, Prame20 mAb on T2 cells without peptide; axis without numbers
[13] = molecular target: T3, 009-mut4 (…) / HLA-A*0201 complex on T2 …; test: phage FACS on peptide-loaded T2 cells
[14] = molecular target: T4, 009-mut6 (…) / HLA-A*0201 complex on T2 …; test: phage FACS on peptide-loaded T2 cells
[15] = molecular target: T1, PRA300-309 (…) / HLA-A*0201 complex; test: phage FACS on peptide-loaded T2 cells
[16] = molecular target: T10, 009-AAAA (…) / HLA-A*0201 complex on T2 cells (human); test: phage FACS on peptide-loaded T2 cells
T10 construct: Control peptide with alanines at positions 4-7; also called EXT009-AAAA; 009-AAAA (position 4-7)

[17] = molecular target: T11, 009-mut2 (…) / HLA-A*0201 complex on T2 cells (human); test: phage FACS on peptide-loaded T2 cells
T11 construct: also called EXT009-mut2

[18] = molecular target: T5, 009-mut5 (…) / HLA-A*0201 complex on T2 …; test: phage FACS on peptide-loaded T2 cells
[19] = molecular target: T6, 009-mut9 (…) / HLA-A*0201 complex on T2 …; test: phage FACS on peptide-loaded T2 cells
[20] = molecular target: T7, 009-mut3 (…) / HLA-A*0201 complex on T2 …; test: phage FACS on peptide-loaded T2 cells
[21] = molecular target: T8, 009-mut8 (…) / HLA-A*0201 complex on T2 …; test: phage FACS on peptide-loaded T2 cells
[22] = molecular target: T12, 009-mut10 (…) / HLA-A*0201 complex on T2 cells (human); test: phage FACS on peptide-loaded T2 cells
T12 construct: Alanine variant at peptide position 10

[23] = molecular target: T9, 009-mut7 (…) / HLA-A*0201 complex on T2 …; test: phage FACS on peptide-loaded T2 cells
[24] = molecular target: T10, 009-AAAA (…) / HLA-A*0201 complex on T2 …; test: phage FACS on peptide-loaded T2 cells; remark: listed apart in the source
[25] = molecular target: T2, HLA-A*0201 on T2 cells without added …; test: phage FACS on T2 cells without peptide
[26] = molecular target: T13, PRA435-443 (…) / HLA-A*0201 complex (human); test: flow cytometry on tumor cell lines
T13 construct: also called PRAME P435

B1: Pr300#20-MAGE (antibody, V domains shown)
VH: QVQLVQSGAEVRKPGASVKVSCKASGGTFSSYAISWVRQAPGQGLEWMGRIIPILGIANYAQKFQGRVTITADKSTSTAYMELSSLRSEDTAVYYCARHYGQWWDYWGQGTLVTVSS
VL: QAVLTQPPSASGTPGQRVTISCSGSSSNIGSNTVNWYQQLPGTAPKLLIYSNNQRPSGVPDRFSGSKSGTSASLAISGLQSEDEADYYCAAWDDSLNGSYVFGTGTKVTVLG
modifications: modified afucosylated Fc
notes: also called Pr#20-Fc enhanced; Pr20M
- EC50 (ADCC, 51Cr release, human PBMC effectors, E:T 50:1) [1]: 2 to 3 nM
- Kd [2]: ≤ 4 nM
- Kd [3]: ≥ 3 nM

B2: PRA300-309 peptide (ALYVDSLFFL) (peptide)
peptide: ALYVDSLFFL
notes: also called pr300 peptide; PRAME300 peptide
- binding result [4]: binds

B3: Pr300#20 human IgG1 antibody (antibody, V domains shown)
VH: QVQLVQSGAEVRKPGASVKVSCKASGGTFSSYAISWVRQAPGQGLEWMGRIIPILGIANYAQKFQGRVTITADKSTSTAYMELSSLRSEDTAVYYCARHYGQWWDYWGQGTLVTVSS
VL: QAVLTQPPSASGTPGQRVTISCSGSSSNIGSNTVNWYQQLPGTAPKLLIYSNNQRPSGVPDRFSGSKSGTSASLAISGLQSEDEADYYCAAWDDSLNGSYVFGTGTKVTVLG
notes: Full-length human IgG1 with matching human lambda constant region; Used APC-conjugated in flow cytometry; also called Pr#20; PR#20
- Median: APC-A [5]: 72800
- Median: APC-A [6]: 28600
- Median: APC-A [7]: 6240
- Median: APC-A [8]: 730
- Median: APC-A [9]: 18900
- Median: APC-A [10]: 10900
- Median: APC-A [11]: 41500
- binding result [12]: no binding

B4: EXT009-8 phage (scFv phage clone) (scFv)
scFv: QSVVTQPPAVSGALGQRVTISCTGTTSNIGAGFDVHWYQQRPGAAPKLLISGNTHRPSGVPDRISGSKSGTLASLAITGLQAEDEADYYCQSYDRSLSTILFGGGTKLTVLGSRGGGGSGGGGSGGGGSLEMAQVQLVQSGAEVKKPGSSVKVSCKASGGTFSSHPISWVRQAPGQGLEWMGRIIPMLDIPNNAQKFQGRVTITADKSTDTAYLELSSLTSEDTAVYYCARGLYYYDYWGQGTLVTVSS
notes: also called EXT009-08
- MFI [13]: 87.6
- MFI [14]: 3830
- MFI [15]: 1360
- MFI [16]: 86.3
- MFI [17]: 83.3
- MFI [18]: 138
- MFI [19]: 83.2
- MFI [20]: 88.2
- MFI [21]: 82.5
- MFI [22]: 83.2
- MFI [23]: 83.1
- binding result [24]: no binding
- MFI [25]: 85.9

B5: EXT009-17 phage (scFv phage clone) (scFv)
scFv: QSVLTQPPSVSGAPGQRVTISCTGSSSNIGAGFDVHWYQQLPGTAPKLLIFGNSNRPSGVPDRFSGSKSGTSASLAITGLQAEDEADYYCQSYDSSLSGYVFGSGTKVTVLGSRGGGGSGGGGSGGGGSLEMAEVQLVESGAEVKKPGSSVKVSCKASGGTFSSYAISWVRQAPGQGLEWMGRIIPIFGIANYAQKFQGRVTITADKSTSTAYMELSSLRSEDTAVYYCARSMWYMDSWGQGTLVTVSS
- MFI [13]: 7510
- MFI [14]: 23800
- MFI [15]: 19400
- MFI [16]: 85.7
- MFI [17]: 82
- MFI [18]: 85.1
- MFI [19]: 79.7
- MFI [20]: 95.5
- MFI [21]: 96.1
- MFI [22]: 146
- MFI [23]: 82.1
- binding result [24]: no binding
- MFI [25]: 82.8

B6: Pr435#12 antibody (antibody, V domains shown)
VH: EVQLVESGAEVKKPGSSVKVSCKASGGTFSSYAISWVRQAPGQGLEWMGRIIPILGIANYAQKFQGRVTITADKSTSTAYMELSSLRSEDTAVYYCARQGYVWSEMDFWGQGTLVTVSS
VL: LLPVLTQPPSVSVAPGKTARITCGGNNIGSKSVHWYQQKPGQAPVLVIYYDSDRPSGIPERFSGSNSGNTATLTISRVEAGDEADYYCQVWDSITDHYVFGTGTKVTVLG
notes: also called Pr4350#12
- binding result [26]: binds

B7: Pr435#37 antibody (antibody, V domains shown)
VH: EVQLVESGAEVKKPGASVKVSCKASGYTFTSYYMHWVRQAPGQGLEWMGIINPSGGSTSYAQKFQGRVTMTRDTSTSTVYMELSSLRSEDTAVYYCAAGSYYSLDIWGQGTMVTVSS
VL: LLPVLTQPHSVSESPGKTVTISCTGSSGSIASNFVQWYQQRPGSAPTTVIYDDNQRPSGVPDRFSASIDRSSNSASLTISGLKTDDEADYYCQSYDGSNVIFGGGTKLTVLG
notes: also called Pr4350#37
- binding result [26]: binds
